From patent publication US20200282021A1

Biological target: GLP-1 receptor expressed on the transgenic cell line GLP1R_cAMP/luc
Experiment: cell-based or functional assay

Dulaglutide (TRULICITY) (Fc fusion)
EC50, cAMP-dependent luciferase reporter in GLP-1R over-expressing cells: 6.66 pM
